Data on six substances can be found in article PMC12618663.

Test [1] addresses TMexC1 adapter prepared alone, C-terminal 6x His tag (Klebsiella pneumoniae). The test is described as follows: SEC. For orientation: SEC sorts molecules by how far they enter the pores of the column.
Test [2] deals with TMexC1 adapter, Strep-tagged, from the single plasmid pBAD24::tmexCD1-toprJ1 (Klebsiella pneumoniae). The test is described as follows: cryo-EM structure.
The target in test [3] is TMexD1 transporter, C-terminal 6x His tag (pET28::tmexD1) (Klebsiella pneumoniae). The test is described as follows: SEC.
For test [4], the target named is TMexD1 transporter, tag-free, from the single plasmid pBAD24::tmexCD1-toprJ1 (Klebsiella pneumoniae). The test is described as follows: cryo-EM structure.
Test [5] concerns the target TOprJ1 outer-membrane channel prepared alone, C-terminal 6x His tag (pET28::toprJ1) (Klebsiella pneumoniae). The test is described as follows: SEC.
For test [6] the target is unchanged. The test is described as follows: negative-stain electron microscopy.
Test [7] concerns the target TOprJ1 outer-membrane channel, 6x His-tagged, from the single plasmid pBAD24::tmexCD1-toprJ1 (Klebsiella pneumoniae). The experiment in a line: cryo-EM structure.

Broadly, the stoichiometry N is a count of units in the complex or per binding partner. In test [1], “TMexC1 adapter prepared alone, C-terminal 6x His tag (natural protein)” returned a stoichiometry N of 6. “TMexC1 adapter, Strep-tagged, from the single plasmid pBAD24::tmexCD1-toprJ1 (natural protein)” displayed a stoichiometry N in test [2] of 6. Regarding “TMexD1 transporter, C-terminal 6x His tag (pET28::tmexD1) (natural protein)”, the stoichiometry N in test [3] amounted to 3. Regarding “TMexD1 transporter, tag-free, from the single plasmid pBAD24::tmexCD1-toprJ1 (natural protein)”, the stoichiometry N in test [4] is 3.

In the case of “TOprJ1 outer-membrane channel prepared alone, C-terminal 6x His tag (pET28::toprJ1) (natural protein)”, the stoichiometry N in test [5] and in test [6] was 3 in each case.

As for “TOprJ1 outer-membrane channel, 6x His-tagged, from the single plasmid pBAD24::tmexCD1-toprJ1 (natural protein)”, the stoichiometry N in test [7] turned out to be 3.
